Test results as given in article PMC10195009.

Biological target: afucosylated IgG-specific nanobody X0
Assay: SPR
Settings: parent: est. 0; read off a plot

Row | Substance | other: log2 fold change in KD [log2]
1 | afucosylated IgG1 Fc E269A | 0.95
2 | afucosylated IgG1 Fc I332A | 0.08
3 | afucosylated IgG1 Fc H268A | -1.5
4 | afucosylated IgG1 Fc L328A | -0.15
5 | afucosylated IgG1 Fc P329A | 0.03
